The values that follow come from US20230212305A1, “ANTI-ABCG2 ANTIBODIES AND USES THEREOF” (Kenjockety Biotechnology, Inc., priority 2020, published 2023).

Series [1] addresses T1, ABCG2 (Homo sapiens, UniProt Q9UNQ0).
T1 construct: expressed in transfected cells
T1 sequence (Q9UNQ0 1-655): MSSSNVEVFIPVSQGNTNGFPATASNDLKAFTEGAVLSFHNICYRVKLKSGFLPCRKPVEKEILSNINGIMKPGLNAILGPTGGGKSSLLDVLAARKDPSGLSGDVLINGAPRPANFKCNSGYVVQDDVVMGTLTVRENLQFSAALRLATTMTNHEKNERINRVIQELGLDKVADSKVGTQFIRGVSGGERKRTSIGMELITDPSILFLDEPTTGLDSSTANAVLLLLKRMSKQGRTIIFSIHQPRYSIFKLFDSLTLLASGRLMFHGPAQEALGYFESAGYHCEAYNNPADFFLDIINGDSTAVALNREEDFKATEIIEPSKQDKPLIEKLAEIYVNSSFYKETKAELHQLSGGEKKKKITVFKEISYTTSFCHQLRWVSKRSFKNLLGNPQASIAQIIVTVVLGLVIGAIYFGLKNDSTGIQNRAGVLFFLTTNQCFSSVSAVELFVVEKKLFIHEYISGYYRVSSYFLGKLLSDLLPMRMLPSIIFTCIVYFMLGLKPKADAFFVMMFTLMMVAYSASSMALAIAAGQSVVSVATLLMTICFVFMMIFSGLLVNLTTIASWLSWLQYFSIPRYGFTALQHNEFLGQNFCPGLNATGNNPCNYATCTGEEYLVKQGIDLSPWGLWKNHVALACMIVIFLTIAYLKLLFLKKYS
It is filed as cell-based. The essentials:
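293T cells overexpressing ABCG2 (2×10e6 cells/ml, phenol red-free DMEM) treated with antibodies or inhibitors at 1 μM final, then loaded with 2.5 μM mitoxantrone 1 h at 37° C. After washing, mitoxantrone retention read as fluorescence (ex 635, em 647 nm) to measure efflux blockade.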

Series [2] concerns the target T1, ABCG2. Briefly: Flow cytometry binding to 293T cells overexpressing human ABCG2 (293T_ABCG2_OX). Details: key to Binding by FACS: binding=“+”; non-significant binding=“−”. The settings on record: for binding to 293 cells overexpressing human ABCG2 (hG2): FACS, FIG. 1. The essentials:
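Antibodies serially diluted (from 100 ug/mL or about 666 nM) and incubated 30 min on ice with 293T cells stably expressing human or cynomolgus ABCG2, in PBS/2% FBS/0.02% azide. Bound antibody detected by PE anti-human IgG F(ab′)2, 20 min on ice, flow cytometry; EC50 = concentration giving half-maximal signal.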

In series [3] the test system is cynomolgus ABCG2. The experiment in a line: Flow cytometry binding to 293T cells overexpressing cynomolgus ABCG2. Also on record: key to Cynomolgus ABCG2 binding: binding=“+”; non-significant binding=“−”. As to conditions: for binding to 293 cells overexpressing cynomolgus ABCG2 (cG2): FACS, FIG. 1. The method in brief: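 293T cells stably overexpressing cynomolgus ABCG2 were incubated on ice for 30 min with antibody at 5 ug/mL or serial dilutions from 100 ug/mL. Bound antibody detected with PE-labelled anti-human IgG F(ab′)2 by flow cytometry; EC50 taken as concentration giving half-maximal response.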
(In general: Flow cytometry measures light scatter and fluorescence of single cells or particles in a stream.)

Series [4] concerns 293T_ABCG2_OX cells. In kind it is cell-based, human. As to conditions: cell killing by topotecan on 293T_ABCG2_OX cells; viability relative to IgG control. How it is done:
Cytotoxicity Assays. The effect of antibodies on topotecan cytotoxicity was evaluated on 293T_ABCG2_OX cells, 293T cells stably transfected to express ABCG2. Cells were plated in 0.05 mL of Assay Media (DMEM+10% FBS) at 5000 cells/well in white, flat bottom 96-well tissue culture plates. Topotecan was prepared at 2× final assay concentration by serial dilution from 200 uM in assay media containing test antibodies or control antibodies at 100 ug/mL (2× final concentration), or Fumitremorgin C, a small molecule ABCG2 inhibitor at 20 uM (2× final concentration). An equivalent volume (0.05 mL) of the topotecan/antibody mixture was added to the 293T_ABCG2_OX cells in 96-well plates. The plates were then incubated at 37° C., in 5% CO2. After 72-96 hr plates were equilibrated to room temperature and cell viability assessed using Promega® CellTiter-Glo® Luminescent Cell Viability Assay according to the manufacturer's recommended protocol. Luminescence was measured on a Molecular Devices® FlexStation® 3 Multi-Mode Microplate Reader and data analyzed using GraphPad Prism 8.0 software. Half maximal inhibitory concentration (1050) is the concentration of drug (topotecan or other chemotherapy cytotoxic agent) where the response (cell growth) is reduced by 50%.

Series [5] concerns HEK 293 naïve cells. The experiment in a line: FACS binding to HEK 293 naïve cells. Details: species or system human. As to conditions: FIG. 1.
Series [6] has as its system Panc1/T300 cells. Briefly: Xenograft study with topotecan-resistant Panc1/T300 cells. In kind it is in vivo. How it is done: PANC1 (ATCC, CRL-1469) is a pancreatic ductal epithelial carcinoma cell line. The topotectan-resistant Panc1/T300 cells were developed by continuously incubating PANC1 cells in the culture medium containing increasing concentration of topotecan of 25, 50, 100, 200 and 300 nM. […] The arrows indicate the dosing schedule.

In series [7] the test system is A549 (ATCC, CCL-185). The experiment in a line: Xenograft study with NSCLC cell line A549. It is filed as in vivo.

“Also recorded” adds a separate entry of the source.

cynomolgus ABCG2, sequence (as listed by the source): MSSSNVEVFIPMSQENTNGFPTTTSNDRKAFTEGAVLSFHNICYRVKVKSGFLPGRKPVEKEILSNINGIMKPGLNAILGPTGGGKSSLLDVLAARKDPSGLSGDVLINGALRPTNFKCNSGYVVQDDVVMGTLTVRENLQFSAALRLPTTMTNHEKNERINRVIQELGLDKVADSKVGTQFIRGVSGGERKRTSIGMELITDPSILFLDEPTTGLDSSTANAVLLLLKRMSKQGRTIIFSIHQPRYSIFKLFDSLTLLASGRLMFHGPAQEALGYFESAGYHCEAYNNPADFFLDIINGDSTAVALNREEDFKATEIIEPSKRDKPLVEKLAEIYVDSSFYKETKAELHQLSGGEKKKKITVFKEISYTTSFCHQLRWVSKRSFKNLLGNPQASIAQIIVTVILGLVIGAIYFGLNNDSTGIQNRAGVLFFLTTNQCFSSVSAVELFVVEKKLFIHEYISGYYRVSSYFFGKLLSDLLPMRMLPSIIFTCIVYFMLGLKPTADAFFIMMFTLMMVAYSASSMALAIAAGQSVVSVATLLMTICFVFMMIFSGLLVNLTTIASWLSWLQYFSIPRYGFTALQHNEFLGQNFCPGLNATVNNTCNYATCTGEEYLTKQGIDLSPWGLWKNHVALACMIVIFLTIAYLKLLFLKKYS

B1: G2.65 mouse: anti-ABCG2 antibody raised in mouse, listed in Table 2 (antibody, V domains shown)
VH: QGQMHQSGAELVKPGASVKLSCKTSGFTFNSGYISWLKQKPRQSLEWIAWIYAGTGISNFNQKFTGKAQLTVDTSSSTAYMQLSSLTSADSAIYFCASGARKTLDFWGQGTSVTVSS
VL: DIQMTQSSSYLSVSVGGRVTITCKASDQINYWLAWYQQKPGNAPRLLISGATSLETGVPSRFSGSGSGKDYTLSITSFQTEDVATYYCQQYWTTPYTFGGGTKVEIK
Regarding B1, the “Block Efflux” value in series [1] was “−”. Besides, the “Binding by FACS” value in series [2] (293T_ABCG2_OX cells) is on record as “+”. In series [2], the “binding to 293 cells overexpressing human ABCG2 (hG2)” value was “binds”. For the same molecule, in series [3], the “Cynomolgus ABCG2 binding” value was “−” and the “binding to 293 cells overexpressing cynomolgus ABCG2 (cG2)” value is on record as “does not significantly bind”. For the same molecule, in series [4], the Killing result is “− (≥75% of IgG control)”. In addition, the “binding to 293 naïve cells” value in series [5] is “does not significantly bind”.

B2: G2.302 mouse: anti-ABCG2 antibody raised in mouse, listed in Table 2 (antibody, V domains shown)
VH: QIQLQQSGPELVRPGASVKISCKASGYTFTDYYINWVKQRPGQGLEWIGWIYPGNVNVKYNEKFKGKATLTVDTSSSTGYMQLRSLTSEDSAVYFCARSIGLRYFDNWGQGTTLTVSS
VL: EKVLTQSPAIMSASLGEKVTMSCRASSSVHYMYWHQQKSDASPRLWIYYTSNLAPGVPARFSGSGSGNFYSLTISSVEDEDGATYYCQQFTTSTWTFGGGTKLEIK
For the molecule B2, in series [1], the “Block Efflux” value is “−”. The “Binding by FACS” value in series [2] (293T_ABCG2_OX cells) is reported as “+”. Also, the “binding to 293 cells overexpressing human ABCG2 (hG2)” value in series [2] is “binds”. Further, in series [3], the “Cynomolgus ABCG2 binding” value was “+” and the “binding to 293 cells overexpressing cynomolgus ABCG2 (cG2)” value was “binds”. For the same molecule, in series [4], the Killing result is “− (≥75% of IgG control)”. The “binding to 293 naïve cells” value in series [5] is on record as “does not significantly bind”.

B3: G2.343 rat: anti-ABCG2 antibody raised in rat (antibody, V domains shown)
VH: SVQLKESGPGLVQPSQTLSLTCTVSGFSLTSNGVSWVRQPPGKGLEWIAAISSGGSTYYNSVLKSRLSISRDTSKSQVFLKMNSLQTEDTAIYFCTRDTYYGYNQIPFVYWGQGTLVTVSS
VL: DVVLAQTPPTLSATIGQSVSISCRSSQSLLHSSGNTYLNWLLQRPGQPPQLLIYLVSRLESRVPNRFSGSGSGTDFTLKISGVEAEDLGVYYCVQSTHAPRTFGGGTKLELK
With B3, the “Block Efflux” value in series [1] is given as “+”. In addition, the “tumor volume, in combination with topotecan” value in series [6] is on record as “efficacious in reducing tumor volume”; in series [7], “efficacious in reducing tumor volume; also recorded: particularly efficacious”. Besides, the “Binding by FACS” value in series [2] (293T_ABCG2_OX cells) is recorded as “+”. In addition, the “Cynomolgus ABCG2 binding” value in series [3] was “+”.

B4: G2.333 rat: anti-ABCG2 antibody raised in rat (antibody, V domains shown)
VH: EIQLQESGPGLVKPSQSLSLTCSVTGYTITSGYDWTWLRKFPGNKMEWMGYISYSGFTNYNPSLRSRISISRDTSKNQFFLQLNSVTTEDTATYYCARTRGYNPFPYWGQGTLVTVSS
VL: DIQMTQSPSLLSASVGDRVSLSCKAGRNVNNYLAWYQQKLGKPPKLLIYNSNSLQTGIPSRFSGSGSGTDFTLTISSLQPEDVATYFCQQYNSWTTFGSGTKLEIK
B4: in series [1], the “Block Efflux” value was “+” and the efflux inhibition activity result is listed as “strong efflux inhibition activity”. The “Binding by FACS” value in series [2] (293T_ABCG2_OX cells) is recorded as “+”. In series [2] (293T_ABCG2_OX cells, read-out: Affinity for human ABCG2), the Kd was 33 nM. The “Cynomolgus ABCG2 binding” value in series [3] is reported as “+”. For the same molecule, the Killing entry in series [4] was “+ (viability ≥30% and <50% of IgG control)”. For the same molecule, in series [7] (compared with 5D3/CPT11 combination), the “efficacy in combination with CPT11 (Irinotecan)” value was “significantly exceeds the efficacy of the 5D3/CPT11 combination”.
